From article PMC6668440, “A one-gate elevator mechanism for the human neutral amino acid transporter ASCT2” (Nature Communications, 2019)

Target: the molecule itself
Test: cryo-EM structure; single particle cryo-EM of the purified transporter in mixed DDM + CHS micelles (20 mM Tris-HCl pH 7.4, 300 mM NaCl); ASCT2_(C467R) with 1 mM DL-TBOA and without inhibitor, ASCT2wt without substrate; C3 symmetry imposed, classifications without symmetry also done

Protein	stoichiometry N	binding result
human Alanine Serine Cysteine Transporter 2 with the C467R mutation (ASCT2_(C467R)) (natural protein, human ASCT2 (SLC1A5), codon optimised gene on the pPICZ-A plasmid, with the single point mutation C467R; residues 43-159 and 177-489 were modelled in the map; Homotrimer (172 kDa) in DDM + CHS micelles; the tag and the limits are not described here; also called SLC1A5 C467R; source: Pichia pastoris X-33, purified (DDM/CHS solubilisation, Ni2+-Sepharose, Superdex 200 SEC)) MVADPPRDSKGLAAAEPTANGGLALASIEDQGAAAGGYCGSRDQVRRCLRANLLVLLTVVAVVAGVALGLGVSGAGGALALGPERLSAFVFPGELLLRLLRMIILPLVVCSLIGGAASLDPGALGRLGAWALLFFLVTTLLASALGVGLALALQPGAASAAINASVGAAGSAENAPSKEVLDSFLDLARNIFPSNLVSAAFRSYSTTYEERNITGTRVKVPVGQEVEGMNILGLVVFAIVFGVALRKLGPEGELLIRFFNSFNEATMVLVSWIMWYAPVGIMFLVAGKIVEMEDVGLLFARLGKYILCCLLGHAIHGLLVLPLIYFLFTRKNPYRFLWGIVTPLATAFGTSSSSATLPLMMKCVEENNGVAKHISRFILPIGATVNMDGAALFQCVAAVFIAQLSQQSLDFVKIITILVTATASSVGAAGIPAGGVLTLAIILEAVNLPVDHISLILAVDWLVDRSRTVLNVEGDALGAGLLQNYVDRTESRSTEPELIQVKSELPLDPLPVPTEEGNPLLKHYRGPAGDATVASEKESVM	3	
human Alanine Serine Cysteine Transporter 2, wild type (ASCT2wt) (natural protein, human ASCT2 (SLC1A5), codon optimised gene on the pPICZ-A plasmid; Only a map (6.98 Å, C3 imposed) was deposited, no model; also called SLC1A5) MVADPPRDSKGLAAAEPTANGGLALASIEDQGAAAGGYCGSRDQVRRCLRANLLVLLTVVAVVAGVALGLGVSGAGGALALGPERLSAFVFPGELLLRLLRMIILPLVVCSLIGGAASLDPGALGRLGAWALLFFLVTTLLASALGVGLALALQPGAASAAINASVGAAGSAENAPSKEVLDSFLDLARNIFPSNLVSAAFRSYSTTYEERNITGTRVKVPVGQEVEGMNILGLVVFAIVFGVALRKLGPEGELLIRFFNSFNEATMVLVSWIMWYAPVGIMFLVAGKIVEMEDVGLLFARLGKYILCCLLGHAIHGLLVLPLIYFLFTRKNPYRFLWGIVTPLATAFGTSSSSATLPLMMKCVEENNGVAKHISRFILPIGATVNMDGAALFQCVAAVFIAQLSQQSLDFVKIITILVTATASSVGAAGIPAGGVLTLAIILEAVNLPVDHISLILAVDWLVDRSCTVLNVEGDALGAGLLQNYVDRTESRSTEPELIQVKSELPLDPLPVPTEEGNPLLKHYRGPAGDATVASEKESVM		binds
